Results from FireProtDB (doi:10.1529/biophysj.104.051052).

Settings: Canavalia ensiformis, pH 7, Fluorescence, HEPES 25 mM, CaCl2 15 mM, reversible: yes, whole UniProt chain shown; for denaturant m value: GdnHCl

B1: Concanavalin-A wild type, P02866 (protein)
chain: MAISKKSSLFLPIFTFITMFLMVVNKVSSSTHETNALHFMFNQFSKDQKDLILQGDATTGTDGNLELTRVSSNGSPQGSSVGRALFYAPVHIWESSAVVASFEATFTFLIKSPDSHPADGIAFFISNIDSSIPSGSTGRLLGLFPDANVIRNSTTIDFNAAYNADTIVAVELDTYPNTDIGDPSYPHIGIDIKSVRSKKTAKWNMQNGKVGTAHIIYNSVDKRLSAVVSYPNADSATVSYDVDLDNVLPEWVRVGLSASTGLYKETNTILSWSFTSKLKSNEIPDIATVV
Q: Which results are given for B1?
A: denaturant m value (7 °C): 1.3 kcal/mol/M; denaturant m value (12 °C): 1.6 kcal/mol/M; denaturant m value (18 °C): 1.8 kcal/mol/M; denaturant m value (27 °C): 2.1 kcal/mol/M; denaturant m value (30 °C): 2.3 kcal/mol/M; denaturant m value (39 °C): 2.2 kcal/mol/M; Tm (Thermal): 98.5 °C; heat capacity change of unfolding (Thermal): 4.2 kcal/mol/K; unfolding enthalpy (van 't Hoff) (Thermal): 179 kcal/mol
